# Laboratory results from patent US20250339531A1, “DUX4 POLYPEPTIDES AND NUCLEIC ACIDS FOR TREATING INFLAMMATORY AND AUTOIMMUNE CONDITIONS” (Fred Hutchinson Cancer Center, priority 2021, published 2025).
# Tests used:
# [1] = biological target: 40S ribosomal protein S3a (Homo sapiens) (UniProt P61247); test: anti-FLAG co-IP LC-MS, exp 3, +Dox
# [2] = biological target: KN motif and ankyrin repeat domain-containing protein 2 (Homo sapiens) (UniProt Q63ZY3); test: anti-FLAG co-IP LC-MS, exp 3, +Dox
# [3] = biological target: 40S ribosomal protein S8 (Homo sapiens) (UniProt P62241); test: anti-FLAG co-IP LC-MS, exp 3, +Dox
# [4] = biological target: Neuroblast differentiation-associated protein AHNAK (Homo sapiens) (UniProt Q09666); test: anti-FLAG co-IP LC-MS, exp 3, +Dox
# [5] = biological target: Serine/threonine-protein phosphatase 2A 65 kDa regulatory subunit A alpha isoform (Homo sapiens) (UniProt P30153); test: anti-FLAG co-IP LC-MS, exp 3, +Dox
# [6] = biological target: 60S ribosomal protein L4 (Homo sapiens) (UniProt P36578); test: anti-FLAG co-IP LC-MS, exp 3, +Dox
# [7] = biological target: 40S ribosomal protein S14 (Homo sapiens) (UniProt P62263); test: anti-FLAG co-IP LC-MS, exp 3, +Dox
# [8] = biological target: Tubulin beta-6 chain (Homo sapiens) (UniProt Q9BUF5); test: anti-FLAG co-IP LC-MS, exp 3, +Dox
# [9] = biological target: Neutral cholesterol ester hydrolase 1 (Homo sapiens) (UniProt Q6PIU2); test: anti-FLAG co-IP LC-MS, exp 3, +Dox
# Chain of Neutral cholesterol ester hydrolase 1 (Homo sapiens) (Q6PIU2 whole entry): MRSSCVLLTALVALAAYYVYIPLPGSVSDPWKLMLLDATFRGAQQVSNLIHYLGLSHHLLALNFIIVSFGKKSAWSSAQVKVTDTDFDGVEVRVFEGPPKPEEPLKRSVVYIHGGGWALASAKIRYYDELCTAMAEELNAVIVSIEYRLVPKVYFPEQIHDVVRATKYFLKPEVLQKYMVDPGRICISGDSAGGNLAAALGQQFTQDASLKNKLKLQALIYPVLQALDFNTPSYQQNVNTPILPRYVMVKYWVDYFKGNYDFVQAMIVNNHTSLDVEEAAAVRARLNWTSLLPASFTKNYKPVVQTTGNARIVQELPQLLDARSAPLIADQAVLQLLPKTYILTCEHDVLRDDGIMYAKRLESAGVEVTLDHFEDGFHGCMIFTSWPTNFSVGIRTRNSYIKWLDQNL
# Myosin-9 (Homo sapiens) = Myosin-9 (Homo sapiens) (UniProt P35579); test: anti-FLAG co-IP LC-MS, exp 3, +Dox
# Chain of Myosin-9 (Homo sapiens) (P35579 2-1960 limits assumed): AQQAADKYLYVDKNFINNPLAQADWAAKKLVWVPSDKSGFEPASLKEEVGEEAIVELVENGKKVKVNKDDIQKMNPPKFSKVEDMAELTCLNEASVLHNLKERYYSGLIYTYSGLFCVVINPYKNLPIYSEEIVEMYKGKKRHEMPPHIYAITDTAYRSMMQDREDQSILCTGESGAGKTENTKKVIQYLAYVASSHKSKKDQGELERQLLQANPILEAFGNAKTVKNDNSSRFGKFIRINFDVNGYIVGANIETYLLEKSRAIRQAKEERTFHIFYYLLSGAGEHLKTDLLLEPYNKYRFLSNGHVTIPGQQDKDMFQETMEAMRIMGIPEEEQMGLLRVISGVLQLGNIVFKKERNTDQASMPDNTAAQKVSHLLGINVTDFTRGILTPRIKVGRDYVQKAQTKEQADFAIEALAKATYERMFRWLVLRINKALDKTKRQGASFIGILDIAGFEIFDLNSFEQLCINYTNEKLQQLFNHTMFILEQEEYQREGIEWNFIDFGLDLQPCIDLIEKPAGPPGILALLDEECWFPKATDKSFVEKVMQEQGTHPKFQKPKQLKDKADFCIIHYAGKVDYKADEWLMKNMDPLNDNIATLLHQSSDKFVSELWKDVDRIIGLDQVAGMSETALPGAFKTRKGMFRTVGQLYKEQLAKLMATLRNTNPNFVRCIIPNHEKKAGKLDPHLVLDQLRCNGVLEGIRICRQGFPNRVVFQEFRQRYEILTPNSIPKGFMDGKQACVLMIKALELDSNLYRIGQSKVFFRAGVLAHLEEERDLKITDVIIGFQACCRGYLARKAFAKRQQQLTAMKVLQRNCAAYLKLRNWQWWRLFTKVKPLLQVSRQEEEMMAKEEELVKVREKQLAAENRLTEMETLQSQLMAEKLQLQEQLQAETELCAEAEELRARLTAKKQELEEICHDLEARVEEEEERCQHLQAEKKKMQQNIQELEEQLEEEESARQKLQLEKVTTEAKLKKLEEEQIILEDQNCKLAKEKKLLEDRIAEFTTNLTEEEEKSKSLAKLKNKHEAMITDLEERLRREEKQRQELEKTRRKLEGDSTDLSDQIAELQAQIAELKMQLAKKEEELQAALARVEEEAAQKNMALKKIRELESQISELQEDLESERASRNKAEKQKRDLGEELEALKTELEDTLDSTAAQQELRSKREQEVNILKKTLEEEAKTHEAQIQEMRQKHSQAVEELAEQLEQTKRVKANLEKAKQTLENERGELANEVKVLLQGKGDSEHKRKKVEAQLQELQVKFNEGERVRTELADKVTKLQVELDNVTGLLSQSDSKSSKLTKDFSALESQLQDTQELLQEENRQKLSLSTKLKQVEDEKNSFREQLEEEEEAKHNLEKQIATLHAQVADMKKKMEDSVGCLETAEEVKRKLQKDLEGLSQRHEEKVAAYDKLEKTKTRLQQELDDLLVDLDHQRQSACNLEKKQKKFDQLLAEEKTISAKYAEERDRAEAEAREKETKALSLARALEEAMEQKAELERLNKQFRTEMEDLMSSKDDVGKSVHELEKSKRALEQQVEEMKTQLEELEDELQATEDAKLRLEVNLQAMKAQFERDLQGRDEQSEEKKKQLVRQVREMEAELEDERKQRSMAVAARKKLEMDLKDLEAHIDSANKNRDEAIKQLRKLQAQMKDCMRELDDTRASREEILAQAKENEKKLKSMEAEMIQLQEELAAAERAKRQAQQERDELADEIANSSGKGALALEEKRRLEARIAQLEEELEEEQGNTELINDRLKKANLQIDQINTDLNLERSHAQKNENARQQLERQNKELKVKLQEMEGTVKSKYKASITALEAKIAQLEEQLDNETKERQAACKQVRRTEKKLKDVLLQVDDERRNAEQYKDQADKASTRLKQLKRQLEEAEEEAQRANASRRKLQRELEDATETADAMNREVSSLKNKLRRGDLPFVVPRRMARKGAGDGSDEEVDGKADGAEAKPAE
# [10] = biological target: Tubulin alpha-1B chain (Homo sapiens) (UniProt P68363); test: anti-FLAG co-IP LC-MS, exp 3, +Dox
# Chain of Tubulin alpha-1B chain (Homo sapiens) (P68363 whole entry): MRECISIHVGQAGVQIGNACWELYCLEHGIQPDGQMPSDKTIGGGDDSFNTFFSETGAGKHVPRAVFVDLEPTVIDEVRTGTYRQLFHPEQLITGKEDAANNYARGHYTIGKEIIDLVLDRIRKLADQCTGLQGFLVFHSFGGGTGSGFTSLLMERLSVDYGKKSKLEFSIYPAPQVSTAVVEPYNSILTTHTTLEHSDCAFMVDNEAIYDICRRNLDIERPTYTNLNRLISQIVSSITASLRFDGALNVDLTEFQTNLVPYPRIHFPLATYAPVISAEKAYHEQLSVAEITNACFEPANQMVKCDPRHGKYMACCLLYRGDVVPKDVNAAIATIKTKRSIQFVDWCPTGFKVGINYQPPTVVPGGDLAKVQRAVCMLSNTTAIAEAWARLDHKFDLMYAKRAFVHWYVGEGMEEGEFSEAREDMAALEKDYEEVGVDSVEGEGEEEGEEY
# [11] = biological target: Fibronectin (Homo sapiens) (UniProt P02751); test: anti-FLAG co-IP LC-MS, exp 3, +Dox
# [12] = biological target: AP-2 complex subunit alpha-1 (Homo sapiens) (UniProt O95782); test: anti-FLAG co-IP LC-MS, exp 3, +Dox
# [13] = biological target: Alpha-actinin-4 (Homo sapiens) (UniProt O43707); test: anti-FLAG co-IP LC-MS, exp 3, +Dox
# [14] = biological target: Tubulin beta chain (Homo sapiens) (UniProt P07437); test: anti-FLAG co-IP LC-MS, exp 3, +Dox
# Chain of Tubulin beta chain (Homo sapiens) (P07437 whole entry): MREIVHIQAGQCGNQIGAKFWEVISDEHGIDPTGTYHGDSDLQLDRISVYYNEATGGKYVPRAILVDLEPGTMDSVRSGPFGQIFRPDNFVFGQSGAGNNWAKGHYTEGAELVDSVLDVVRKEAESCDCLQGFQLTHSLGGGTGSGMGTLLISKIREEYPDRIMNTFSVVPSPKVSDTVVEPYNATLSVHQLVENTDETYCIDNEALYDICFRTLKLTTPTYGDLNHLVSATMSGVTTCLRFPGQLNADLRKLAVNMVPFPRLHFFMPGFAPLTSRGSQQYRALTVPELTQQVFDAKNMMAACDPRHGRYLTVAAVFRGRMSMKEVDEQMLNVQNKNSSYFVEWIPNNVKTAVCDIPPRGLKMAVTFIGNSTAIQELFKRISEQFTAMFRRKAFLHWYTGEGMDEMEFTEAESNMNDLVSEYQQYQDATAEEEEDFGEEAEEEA
# [15] = biological target: 60S ribosomal protein L13 (Homo sapiens) (UniProt P26373); test: anti-FLAG co-IP LC-MS, exp 3, +Dox
# [16] = biological target: Prostate tumor-overexpressed gene 1 protein (Homo sapiens) (UniProt Q86YD1); test: anti-FLAG co-IP LC-MS, exp 3, +Dox
# [17] = biological target: Myosin regulatory light chain 12A (Homo sapiens) (UniProt J3QRS3); test: anti-FLAG co-IP LC-MS, exp 3, +IFNg +Dox
# [18] = biological target: 40S ribosomal protein S3a (Homo sapiens) (UniProt P61247); test: anti-FLAG co-IP LC-MS, exp 3, +IFNg +Dox
# [19] = biological target: Endoplasmic reticulum chaperone BiP (Homo sapiens) (UniProt P11021); test: anti-FLAG co-IP LC-MS, exp 3, +IFNg +Dox
# Chain of Endoplasmic reticulum chaperone BiP (Homo sapiens) (P11021 19-654 limits assumed): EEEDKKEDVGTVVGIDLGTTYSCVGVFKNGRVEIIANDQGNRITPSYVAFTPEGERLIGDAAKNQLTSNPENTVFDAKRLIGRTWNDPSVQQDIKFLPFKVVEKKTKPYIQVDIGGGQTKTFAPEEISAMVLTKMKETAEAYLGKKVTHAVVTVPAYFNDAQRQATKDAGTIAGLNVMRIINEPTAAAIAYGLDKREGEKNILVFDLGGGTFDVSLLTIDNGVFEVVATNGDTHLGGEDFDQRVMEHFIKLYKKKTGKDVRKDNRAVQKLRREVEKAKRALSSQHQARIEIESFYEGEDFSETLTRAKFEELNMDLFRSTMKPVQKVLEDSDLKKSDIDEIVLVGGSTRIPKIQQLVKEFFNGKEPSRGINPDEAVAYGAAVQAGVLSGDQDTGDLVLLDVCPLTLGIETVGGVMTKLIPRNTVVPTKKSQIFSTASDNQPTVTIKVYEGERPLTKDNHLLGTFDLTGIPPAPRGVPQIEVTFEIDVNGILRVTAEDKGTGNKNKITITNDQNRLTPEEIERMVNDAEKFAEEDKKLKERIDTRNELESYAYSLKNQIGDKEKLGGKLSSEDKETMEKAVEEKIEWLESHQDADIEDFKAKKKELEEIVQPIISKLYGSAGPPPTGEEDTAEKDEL
# [20] = biological target: 60S ribosomal protein L19 (Homo sapiens) (UniProt P84098); test: anti-FLAG co-IP LC-MS, exp 3, +IFNg +Dox
# [21] = biological target: 4F2 cell-surface antigen heavy chain (Homo sapiens) (UniProt P08195); test: anti-FLAG co-IP LC-MS, exp 3, +IFNg +Dox
# Filamin-C (Homo sapiens) = Filamin-C (Homo sapiens) (UniProt Q14315); test: anti-FLAG co-IP LC-MS, exp 3, +IFNg +Dox
# [22] = biological target: 40S ribosomal protein S14 (Homo sapiens) (UniProt P62263); test: anti-FLAG co-IP LC-MS, exp 3, +IFNg +Dox
# [23] = biological target: 60 kDa heat shock protein, mitochondrial (Homo sapiens) (UniProt P10809); test: anti-FLAG co-IP LC-MS, exp 3, +IFNg +Dox
# [24] = biological target: Spectrin beta chain (Homo sapiens) (UniProt Q01082); test: anti-FLAG co-IP LC-MS, exp 3, +IFNg +Dox
# [25] = biological target: 40S ribosomal protein S6 (Homo sapiens) (UniProt P62753); test: anti-FLAG co-IP LC-MS, exp 3, +IFNg +Dox
# [26] = biological target: WD repeat-containing protein 1 (Homo sapiens) (UniProt O75083); test: anti-FLAG co-IP LC-MS, exp 3, +IFNg +Dox
# [27] = biological target: Heat shock cognate 71 kDa protein (Homo sapiens) (UniProt P11142); test: anti-FLAG co-IP LC-MS, exp 3, +IFNg +Dox
# [28] = biological target: 60S ribosomal protein L29 (Homo sapiens) (UniProt P47914); test: anti-FLAG co-IP LC-MS, exp 3, +IFNg +Dox
# [29] = biological target: Protein disulfide-isomerase A3 (Fragment) (Homo sapiens) (UniProt P30101); test: anti-FLAG co-IP LC-MS, exp 3, +IFNg +Dox
# [30] = biological target: Heat shock protein HSP 90-beta (Homo sapiens) (UniProt P08238); test: anti-FLAG co-IP LC-MS, exp 3, +IFNg +Dox
# Chain of Heat shock protein HSP 90-beta (Homo sapiens) (P08238 2-724 limits assumed): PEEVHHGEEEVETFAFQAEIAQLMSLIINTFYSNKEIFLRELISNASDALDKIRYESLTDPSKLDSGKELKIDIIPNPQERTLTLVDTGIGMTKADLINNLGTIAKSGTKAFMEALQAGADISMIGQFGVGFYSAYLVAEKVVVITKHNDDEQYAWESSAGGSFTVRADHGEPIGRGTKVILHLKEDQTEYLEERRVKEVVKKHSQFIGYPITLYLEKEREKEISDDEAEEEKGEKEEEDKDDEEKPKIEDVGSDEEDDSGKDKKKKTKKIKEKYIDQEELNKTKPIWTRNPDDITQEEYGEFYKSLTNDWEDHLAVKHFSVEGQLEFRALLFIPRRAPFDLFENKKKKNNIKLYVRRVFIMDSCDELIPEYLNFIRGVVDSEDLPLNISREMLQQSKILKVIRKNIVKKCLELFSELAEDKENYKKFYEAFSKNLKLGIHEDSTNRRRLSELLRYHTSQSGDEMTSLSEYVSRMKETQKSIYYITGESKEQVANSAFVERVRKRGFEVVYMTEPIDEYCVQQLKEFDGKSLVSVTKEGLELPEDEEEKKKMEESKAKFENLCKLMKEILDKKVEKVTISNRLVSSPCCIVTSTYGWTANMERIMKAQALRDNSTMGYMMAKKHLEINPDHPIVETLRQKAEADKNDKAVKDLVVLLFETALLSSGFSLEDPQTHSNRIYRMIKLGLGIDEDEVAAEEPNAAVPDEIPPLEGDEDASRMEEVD
# [31] = biological target: Procollagen-lysine, 2-oxoglutarate 5-dioxygenase 3 (Homo sapiens) (UniProt O60568); test: anti-FLAG co-IP LC-MS, exp 3, +IFNg +Dox
# [32] = biological target: Caveolae-associated protein 1 (Homo sapiens) (UniProt Q6NZI2); test: anti-FLAG co-IP LC-MS, exp 3, +IFNg +Dox
# Chain of Caveolae-associated protein 1 (Homo sapiens) (Q6NZI2 whole entry): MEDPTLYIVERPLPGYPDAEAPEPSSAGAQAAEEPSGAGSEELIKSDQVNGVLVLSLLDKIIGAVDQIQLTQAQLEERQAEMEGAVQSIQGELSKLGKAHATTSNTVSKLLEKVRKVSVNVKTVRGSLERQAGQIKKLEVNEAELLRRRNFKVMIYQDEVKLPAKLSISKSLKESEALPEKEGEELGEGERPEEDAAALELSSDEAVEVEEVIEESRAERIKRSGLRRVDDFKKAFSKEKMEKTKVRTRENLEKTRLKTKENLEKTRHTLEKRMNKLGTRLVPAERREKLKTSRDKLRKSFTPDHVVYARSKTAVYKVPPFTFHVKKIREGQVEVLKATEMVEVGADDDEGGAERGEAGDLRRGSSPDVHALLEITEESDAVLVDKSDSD
# [33] = biological target: Tubulin beta chain (Homo sapiens) (UniProt P07437); test: anti-FLAG co-IP LC-MS, exp 3, +IFNg +Dox
# [34] = biological target: Elongation factor 1-alpha 1 (Homo sapiens) (UniProt P68104); test: anti-FLAG co-IP LC-MS, exp 3, +IFNg +Dox
# Plectin (Homo sapiens) = Plectin (Homo sapiens) (UniProt Q15149); test: anti-FLAG co-IP LC-MS, exp 3, +IFNg +Dox
# [35] = biological target: Tubulin alpha chain (Homo sapiens) (UniProt F5H5D3); test: anti-FLAG co-IP LC-MS, exp 3, +IFNg +Dox
substance,measurement,setting,value
i3XFLAG-NLS-CTDaa154-424,PSMs,[1],3 PSMs
same,PSMs,[2],3 PSMs
same,PSMs,[3],2 PSMs
same,PSMs,[4],8 PSMs
same,PSMs,[5],5 PSMs
same,PSMs,[6],10 PSMs
same,PSMs,[7],2 PSMs
same,PSMs,[8],20 PSMs
same,PSMs,[9],3 PSMs
same,PSMs,Myosin-9 (Homo sapiens),122 PSMs
same,PSMs,[10],22 PSMs
same,PSMs,[11],17 PSMs
same,PSMs,[12],10 PSMs
same,PSMs,[13],2 PSMs
same,PSMs,[14],41 PSMs
same,PSMs,[15],2 PSMs
same,PSMs,[16],2 PSMs
same,PSMs,[17],3 PSMs
same,PSMs,[18],5 PSMs
same,PSMs,[19],62 PSMs
same,PSMs,[20],2 PSMs
same,PSMs,[21],2 PSMs
same,PSMs,Filamin-C (Homo sapiens),7 PSMs
same,PSMs,[22],3 PSMs
same,PSMs,[23],2 PSMs
same,PSMs,[24],9 PSMs
same,PSMs,[25],3 PSMs
same,PSMs,[26],2 PSMs
same,PSMs,[27],54 PSMs
same,PSMs,[28],2 PSMs
same,PSMs,[29],2 PSMs
same,PSMs,[30],14 PSMs
same,PSMs,[31],2 PSMs
same,PSMs,[32],3 PSMs
same,PSMs,[33],75 PSMs
same,PSMs,[34],21 PSMs
same,PSMs,Plectin (Homo sapiens),21 PSMs
same,PSMs,[35],47 PSMs
